The source of these data is article PMC3391209, “A Lon-Like Protease with No ATP-Powered Unfolding Activity” (PLoS ONE, 2012).

One assay concerns the target T1, MtaLonC (Meiothermus taiwanensis, UniProt C9DRU9).
T1 construct: gene lon_2; full-length, 719 residues, C-terminal His tag (pET21a), expressed in E. coli BL21(DE3); homohexamer, monomer 79 kDa
T1 sequence (C9DRU9 1-719): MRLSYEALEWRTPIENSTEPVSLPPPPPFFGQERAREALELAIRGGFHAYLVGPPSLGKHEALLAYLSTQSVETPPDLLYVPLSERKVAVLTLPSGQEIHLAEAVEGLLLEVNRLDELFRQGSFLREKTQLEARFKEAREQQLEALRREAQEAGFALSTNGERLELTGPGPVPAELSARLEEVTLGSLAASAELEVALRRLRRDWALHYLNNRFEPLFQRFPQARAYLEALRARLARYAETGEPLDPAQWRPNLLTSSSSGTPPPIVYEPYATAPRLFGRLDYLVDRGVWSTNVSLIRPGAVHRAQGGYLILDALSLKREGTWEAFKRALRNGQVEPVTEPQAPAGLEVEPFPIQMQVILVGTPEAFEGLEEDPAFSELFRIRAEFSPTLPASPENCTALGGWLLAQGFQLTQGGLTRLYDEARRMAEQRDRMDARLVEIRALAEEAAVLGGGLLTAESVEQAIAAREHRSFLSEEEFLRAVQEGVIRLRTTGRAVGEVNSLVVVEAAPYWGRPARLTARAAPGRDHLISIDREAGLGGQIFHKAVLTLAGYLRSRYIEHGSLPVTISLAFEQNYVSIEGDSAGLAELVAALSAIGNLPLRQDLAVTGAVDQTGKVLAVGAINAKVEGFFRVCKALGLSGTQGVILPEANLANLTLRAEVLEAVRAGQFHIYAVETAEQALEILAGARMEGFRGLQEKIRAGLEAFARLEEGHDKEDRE
The assay is described as follows: isothermal titration calorimetry, one-site fit. The class given is binding. A general note: In ITC the heat of successive injections is recorded.

Assay [1] has as its target Lon-like protease MtaLonC from Meiothermus taiwanensis WR-220 (Meiothermus taiwanensis WR-220). The assay is described as follows: SEC; Superose 6; 1 mg/mL, pH 5-8; hexamer formation not dependent on Mg2+ or ATP; aggregates in the void volume when concentrated.
Assay [2] has the same target. The experiment in a line: negative-stain electron microscopy; about 50 µg/ml MtaLonC, 2% uranyl acetate, class averages; hexamer and void-volume fractions from Superose 6.
Assay [3] has the same target. The assay is described as follows: AUC; sedimentation equilibrium (4,000-6,000 r.p.m.) and sedimentation velocity (20,000 rpm), 20°C, 20 mM sodium citrate pH 5.5, 100 mM NaCl, 1 mM DTT, 7.8 µM protein.
The target of a further assay is T2, EcLonA (Escherichia coli, UniProt P0A9M0).
T2 construct: gene lon; recombinant, expressed and purified as described previously
The experiment in a line: […]-NMR of phosphate release; colorimetric ATPase assay. As to conditions: 37 °C, 50 mM Tris-HCl pH 8.0, 10 mM MgCl2, 10 mM ATP (NMR); positive control. The class given is biochemical.

T2 sequence (P0A9M0 2-784): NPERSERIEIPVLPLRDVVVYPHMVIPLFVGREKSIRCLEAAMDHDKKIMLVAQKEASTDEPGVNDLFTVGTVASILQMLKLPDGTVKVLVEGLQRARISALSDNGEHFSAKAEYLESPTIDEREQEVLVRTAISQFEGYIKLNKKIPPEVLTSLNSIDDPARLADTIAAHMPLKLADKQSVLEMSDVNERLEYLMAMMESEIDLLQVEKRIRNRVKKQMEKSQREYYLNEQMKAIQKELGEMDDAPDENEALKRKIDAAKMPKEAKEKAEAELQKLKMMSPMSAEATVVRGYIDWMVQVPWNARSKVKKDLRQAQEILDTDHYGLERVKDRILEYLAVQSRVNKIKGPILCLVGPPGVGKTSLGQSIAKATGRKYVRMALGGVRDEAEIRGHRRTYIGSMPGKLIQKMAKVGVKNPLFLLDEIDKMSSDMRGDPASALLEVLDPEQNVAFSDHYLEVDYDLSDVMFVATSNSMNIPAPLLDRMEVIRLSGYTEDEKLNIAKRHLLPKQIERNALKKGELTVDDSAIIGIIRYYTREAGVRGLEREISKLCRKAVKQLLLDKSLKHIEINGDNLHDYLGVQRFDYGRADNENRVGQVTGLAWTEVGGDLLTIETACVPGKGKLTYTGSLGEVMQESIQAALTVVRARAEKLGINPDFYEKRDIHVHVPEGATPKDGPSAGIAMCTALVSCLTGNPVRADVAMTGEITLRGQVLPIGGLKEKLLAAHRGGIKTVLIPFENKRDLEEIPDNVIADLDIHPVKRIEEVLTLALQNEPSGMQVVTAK

Consider `Nc1ncnc2c1ncn2[C@@H]1O[C@H](CO[P@](=O)(O)O[P@](=O)(O)O[P@@](=O)(O)S)[C@@H](O)[C@H]1O` [ATPγS], for which binding at MtaLonC was put at a Kd of 7.8 µM.

“Lon-like protease MtaLonC from Meiothermus taiwanensis WR-220 (enzyme)”: the stoichiometry N in assay [1], in assay [2] and in assay [3] was 6 throughout.

With `Nc1ncnc2c1ncn2[C@@H]1O[C@H](COP(=O)(O)OP(=O)(O)OP(=O)(O)O)[C@@H](O)[C@H]1O` [ATP], the “31P-NMR of phosphate release; colorimetric ATPase assay” value at EcLonA is “incubation of an excess amount of ATP with EcLonA resulted in hydrolysis of ATP”.

What is called Kd is the equilibrium constant for the complex coming apart. Usually stoichiometry N stands for a count of units in the complex or per binding partner.
